Patent US20020095023A1 (published 2002)
Ends that are not written are not given here.

B1: Recombinant rat HRF (IgE-dependent histamine-releasing factor) (ligand, UniProt P63029 1-172, looked up)
chain: MIIYRDLISHDELFSDIYKIREIADGLCLEVEGKMVSRTEGAIDDSLIGGNASAEGPEGEGTESTVVTGVDIVMNHHLQETSFTKEAYKKYIKDYMKSLKGKLEEQKPERVKPFMTGAAEQIKHILANFNNYQFFIGENMNPDGMVALLDYREDGVTPFMIFFKDGLEMEKC
notes: Expressed in E. coli from pRSET-A and purified on a Ni column; also called recombinant HRF protein; translationally controlled tumor protein; not shown: N-terminal His-tag leader of the pRSET-A vector
B2: synthetic heptapeptide p4 (peptide)
peptide: WEFPGWM
B3: synthetic heptapeptide p2 (peptide)
peptide: WYVYPSM
B4: phage ph4 displaying peptide p4 (peptide)
peptide: WEFPGWM
modifications: also: displayed on phage coat protein
notes: Whole phage particle in the assay; not shown: phage coat protein of the heptamer library (New England Biolabs); linker and coat protein not described
B5: synthetic heptapeptide p1 (peptide)
peptide: LVTYPLP
B6: phage ph2 displaying peptide p2 (peptide)
peptide: WYVYPSM
modifications: also: displayed on phage coat protein
notes: Whole phage particle in the assay; also called ph2 clone; not shown: phage coat protein of the heptamer library (New England Biolabs); linker and coat protein not described

What was measured:
[1] = target: T1, (Na,K)ATPase as flowed in the Biacore analysis; test: Biacore (SPR); HRF immobilised on CM5 sensor chip, (Na,K)ATPase flowed
T1 construct: domain: large cytoplasmic loop; also called (Na,K)ATPase large cytoplasmic loop
Procedure: Recombinant rat HRF was immobilized on CM5 sensor chip at a concentration of […] in pH 4.0, 10 mM acetate and then, corrected by flowing HBS buffer (0.01 M Hepes, pH 7.4, 0.15 M NaCl, 3 mM EDTA, 0.005% surfactant P20). […] by flowing 50 mM NHS (N-hydroxysuccinimide) and 200 mM EDC(N-ethyl-N-(3-[…])carbodiimide). The binding affinity was measured by flowing (Na,K)ATPase.

[2] = target: B1; test: competition ELISA on HRF-coated wells against phage ph2, anti-M13-HRP
Procedure: (§1) Also, as a negative control, random peptide (ran, amino acid sequence: LMEGCRA) was synthesized. To the wells coated with HRF was added each 30 μl of the peptide solution serially diluted in 6% BSA/PBS from 1000 nM (1000, 100, 10, 1, 0.1, 0.01, 0.001 nM) and the solution was allowed to stand at room temperature for 30 minutes. The 1/25-fold diluted phage solution was added thereto and the whole solution was further allowed to stand for 2 hours. The solution was washed five times with PBST and then, each 100 μl of HRP-conjugated anti-M13 antibodies were added thereto and then, the resulting mixture was allowed to stand for 1 hour. The mixture was washed 6 times with PBST and once with PBS, and thereto was added each 100 μl of peroxydase substrate solution to examine the competition. It can be seen from the above figures that both of the synthetic peptides p2 and p4 bind to HRF competitively with phage clones ph2 and ph4.
b) In order to test whether or not p1, p2 and p4 bind to the identical site on HRF, the wells were coated with HRF according to the substantially same procedure as in the above a). As shown FIG. 14c, p1, p2 and p4 bound to the identical site on HRF.

[3] = target: B1; test: competition ELISA on HRF-coated wells, peptide added before phage ph4 (1/25 dilution), anti-M13-HRP
Procedure: as §1

[4] = target: B1; test: competition ELISA on HRF-coated wells, peptide added before phage ph2 (1/25 dilution), anti-M13-HRP
Procedure: as §1

BSA = target: T2, BSA (bovine, UniProt P02769); test: phage ELISA on coated wells, anti-M13-HRP
T2 construct: control coating of the ELISA wells; also called bovine serum albumin
Procedure: That is, the phage plaques were transferred to 1 ml of ER2537 culture solution cultivated in SB medium (OD₆₀₀=0.5˜1) and then, cultured in 37° C. incubator (rpm 250) for 5 hours. Each 100 μl of the culture solution was added to 900 μl of SB medium and cultured overnight. The culture solution was centrifuged twice at 14,000 rpm for 5 minutes per centrifugation and the obtained supernatant was used for ELISA.
To plastic wells, each of which was coated with HRF or BSA (control), 50 μl of a solution obtained by diluting each isolated phage solution with the equivalent amount of 6% BSA/PBS, and the resulting mixture was allowed to stand for 2 hours. After washing five times with PBST, 100 μl of HRP-conjugated anti-M13 antibodies (Pharmacia) diluted in 3% BSA/PBS with the ratio of 1:5000 were added thereto and the whole was allowed to stand for 1 hour. After washing six times with PBST and then, once with PBS, 100 μl of peroxydase substrate solution was added thereto. The chromogenicity was measured using ELISA reader at 405 nm. From FIG. 12, it can be seen that the phages ph1, ph2 and ph4, especially ph2 and ph4, specifically bind to HRF.

T2 sequence (P02769 25-607 limits assumed): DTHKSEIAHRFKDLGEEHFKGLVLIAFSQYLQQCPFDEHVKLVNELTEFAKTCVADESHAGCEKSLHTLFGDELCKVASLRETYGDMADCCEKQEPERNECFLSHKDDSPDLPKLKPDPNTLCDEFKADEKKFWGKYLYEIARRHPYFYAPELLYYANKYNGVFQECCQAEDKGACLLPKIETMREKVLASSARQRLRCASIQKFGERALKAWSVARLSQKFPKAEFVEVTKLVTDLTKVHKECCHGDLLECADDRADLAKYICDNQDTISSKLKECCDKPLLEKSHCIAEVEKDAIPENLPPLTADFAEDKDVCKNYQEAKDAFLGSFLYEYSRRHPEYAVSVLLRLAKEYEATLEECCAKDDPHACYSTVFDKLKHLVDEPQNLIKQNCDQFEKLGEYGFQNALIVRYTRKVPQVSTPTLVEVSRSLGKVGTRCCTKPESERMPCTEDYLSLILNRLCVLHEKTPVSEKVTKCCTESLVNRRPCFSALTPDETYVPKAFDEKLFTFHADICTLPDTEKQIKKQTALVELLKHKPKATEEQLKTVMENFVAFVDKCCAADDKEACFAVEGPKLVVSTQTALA

| Binder | IC50 (read off the curve) [2] | binding result (BSA) | further results |
| --- | --- | --- | --- |
| B1 | – | – | Kd [1]: 850 nM |
| B2 | ~20 nM | – | IC50 (read off the curve) [3]: ~10 nM |
| B3 | – | – | IC50 (read off the curve) [4]: ~40 nM |
| B4 | – | no binding | – |
| B5 | ~20 nM | – | – |
| B6 | – | no binding | – |
